Assay: Retention on affinity column grafted with glutathione (GSH) after thrombin cutting
Type: binding
Details: after cutting GST-NBF1 with thrombin; coelutes with GST
Experimental: The suspension was centrifuged at 17,000 rpm for 40 minutes, and at 4° C., on a JA20 rotor (Beckman). The supernatant was incubated with 5 ml of a glutathione support (G4B Pharmacia) at ambient temperature for 30 minutes. The column was filled. The fusion protein was eluted with a 10 mM glutathione, 50 mM Tris, pH 8, solution at a flow rate of 0.05 ml/min. The fractions absorbing at 280 nm were collected and applied in portions of 500 μl to an ion exchange column (MonoQ, Pharmacia). The column was eluted with a 150 mM solution of NaCl and a 42 kD protein was identified on an SDS-PAGE gel and then confirmed by mass spectroscopy. The production yields of soluble fusion protein are 5 mg/l of culture.
Following purification, the fusion protein sample was dialyzed against a buffer (150 mM NaCl, 2.5 mM CaCl2, 50 mM Tris/HC1) at pH=8. Human thrombin (T7009, Sigma) was added to give a final concentration of 5u per mg of fusion protein. The mixture was incubated at ambient temperature for 30 minutes. The products of the cutting reaction were characterized on an SDS-PAGE gel and a protein having a molecular weight of 18 kD (corresponding to the expected molecular weight of NBF1) was observed.
The GST-NBF1 fusion protein is efficiently recognized by an anti-NBF1 antibody (MATG 1061, distributed by Transgene). The affinity of this recombinant protein for ATP was verified. […]

B1: NBF1: Recombinant NBF1 domain of the CFTR protein (sequence R450-I586), 18 kD, released from GST fusion by thrombin (protein, UniProt P13569 450-586, looked up, fragment)
chain: RGQLLAVAGSTGAGKTSLLMVIMGELEPSEGKIKHSGRISFCSQFSWIMPGTIKENIIFGVSYDEYRYRSVIKACQLEEDISKFAEKDNIVLGEGGITLSGGQRARISLARAVYKDADLYLLDSPFGYLDVLTEKEI
behaviour on column of immobilized GSH: retained on the GSH column

Reference: US6635627B1, “Anti-cancer products for treating cystic fibrosis” (Centre National de la Recherche Scientifique (CNRS), priority 1997, dated 2003)
